From publication PMC3496974 (MicrobiologyOpen, 2012)

Experiments:
PanZ(N45A)-His = molecular target: T1, PanZ(N45A)-His (E. coli, UniProt P37613 1-127, N45A); experiment: SEC
T1 sequence: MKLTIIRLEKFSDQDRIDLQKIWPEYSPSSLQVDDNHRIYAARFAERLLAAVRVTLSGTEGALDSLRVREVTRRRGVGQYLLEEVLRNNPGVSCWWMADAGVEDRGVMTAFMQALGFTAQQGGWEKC

SEC = molecular target: the molecule itself; experiment: SEC

binding result (PanZ(N45A)-His): binds
B1: PanD, unactivated proenzyme (native, untagged) (enzyme, E. coli, UniProt P0A790 1-126, looked up)
chain: MIRTMLQGKLHRVKVTHADLHYEGSCAIDQDFLDAAGILENEAIDIWNVTNGKRFSTYAIAAERGSRIISVNGAAAHCASVGDIVIIASFVTMPDEEARTWRPNVAYFEGDNEMKRTAKAIPVQVA
stoichiometry N (SEC): 4
